Experimental data reported in IntAct's records for PubMed 29039417.

B1: BBSome complex member BBS4 (Homo sapiens), Q96RK4 (parent)
chain: MAEERVATRTQFPVSTESQKPRQKKAPEFPILEKQNWLIHLHYIRKDYEACKAVIKEQLQETQGLCEYAIYVQALIFRLEGNIQESLELFQTCAVLSPQSADNLKQVARSLFLLGKHKAAIEVYNEAAKLNQKDWEISHNLGVCYIYLKQFNKAQDQLHNALNLNRHDLTYIMLGKIHLLEGDLDKAIEVYKKAVEFSPENTELLTTLGLLYLQLGIYQKAFEHLGNALTYDPTNYKAILAAGSMMQTHGDFDVALTKYRVVACAVPESPPLWNNIGMCFFGKKKYVAAISCLKRANYLAPFDWKILYNLGLVHLTMQQYASAFHFLSAAINFQPKMGELYMLLAVALTNLEDIENAKRAYAEAVHLDKCNPLVNLNYAVLLYNQGEKKNALAQYQEMEKKVSLLKDNSSLEFDSEMVEMAQKLGAALQVGEALVWTKPVKDPKSKHQTTSTSKPASFQQPLGSNQALGQAMSSAAAYRTLPSGAGGTSQFTKPPSLPLEPEPAVESSPTETSEQIREK
partner: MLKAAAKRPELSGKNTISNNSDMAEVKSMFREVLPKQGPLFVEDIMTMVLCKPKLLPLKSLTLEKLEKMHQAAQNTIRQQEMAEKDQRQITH

Variants of: B1
Conditions: with bbip1_human BBIP1, A8MTZ0

Variant	effect of a mutation on the interaction
MAEERVATRTQFPVSTESQKPRQKKAPEFPILEKQNWLIHLHYIRKDYEACKAVIKEQLQETQGLCEYAIYVQALIFRLEGNIQESLELFQTCAVLSPQSADNLKQVARSLFLLGKHKAAIEVYNEAAKLNQKDWEISHNLGVCYIYLKQFNKAQDQLHNALNLNRHDLTYIMLGKIHLLEGDLDKAIEVYKKAVEFSPENTELLTTLGLLYLQLGIYQKAFEHLGNALTYDPTNYKAILAAGSMMQTHGDFDVALTKYRVVACAVPESPPLWNNIGMCFFGKKKYVAAISCLKRANYLAPFDWKILYNLGLVHLTMQQYASAFHFLSAAINFQPKMGELYMLLAVALTNLEDIENAKRAYAEAVHLDKCNPLVNLNYAVLLYNQGEKKNALAQYQEMEKKVSLLKDNSSLEFDSEMVEMAQKLGAALQVGEALVWTKPEKDPKSKHQTTSTSKPASFQQPLGSNQALGQAMSSAAAYRTLPSGAGGTSQFTKPPSLPLEPEPAVESSPTETSEQIREK [V440E]	with no effect
MAEERVATRTQFPVSTESQKPRQKKAPEFPILEKQNWLIHLHYIRKDYEACKAVIKEQLQETQGLCEYAIYVQALIFRLEGNIQESLELFQTCAVLSPQSADNLKQVARSLFLLGKHKAAIEVYNEAAKLNQKDWEISHNLGVCYIYLKQFNKAQDQLHNALNLNRHDLTYIMLGKIHLLEGDLDKAIEVYKKAVEFSPENTELLTTLGLLYLQLGIYQKAFEHLGNALTYDPTNYKAILAAGSMMQTHGDFDVALTKYRVVACAVPESPPLWNNIGMCFFGKKKYVAAISCLKRANYLAPFDWKILYNLGLVHLTMQQYASAFHFLSAAINFQPKMGELYMLLAVALTNLEDIENAKRAYAEAVHLDKCNPLVNLNYAVLLYNQGEKKNALAQYQEMEKKVSLLKDNSSLEFDSEMVEAAQKLGAALQVGEALVWTKPVKDPKSKHQTTSTSKPASFQQPLGSNQALGQAMSSAAAYRTLPSGAGGTSQFTKPPSLPLEPEPAVESSPTETSEQIREK [M420A]	with no effect
MAEERVATRTQFPVSTESQKPRQKKAPEFPILEKQNWLIHLHYIRKDYEACKAVIKEQLQETQGLCEYAIYVQALIFRLEGNIQESLELFQTCAVLSPQSADNLKQVARSLFLLGKHKAAIEVYNEAAKLNQKDWEISHNLGVCYIYLKQFNKAQDQLHNALNLNRHDLTYIMLGKIHLLEGDLDKAIEVYKKAVEFSPENTELLTTLGLLYLQLGIYQKAFEHLGNALTYDPTNYKAILAAGSMMQTHGDFDVALTKYRVVACAVPESPPLWNNIGMCFFGKKKYVAAISCLKRANYLAPFDWKILYNLGLVHLTMQQYASAFHFLAAAINFQPKMGELYMLLAVALTNLEDIENAKRAYAEAVHLDKCNPLVNLNYAVLLYNQGEKKNALAQYQEMEKKVSLLKDNSSLEFDSEMVEMAQKLGAALQVGEALVWTKPVKDPKSKHQTTSTSKPASFQQPLGSNQALGQAMSSAAAYRTLPSGAGGTSQFTKPPSLPLEPEPAVESSPTETSEQIREK [S328A]	with no effect
MAEERVATRTQFPVSTESQKPRQKKAPEFPILEKQNWLIHLHYIRKDYEACKAVIKEQLQETQGLCEYAIYVQALIFRLEGNIQESLELFQTCAVLSPQSADNLKQVARSLFLLGKHKAAIEVYNEAAKLNQKDWEISHNLGVCYIYLKQFNKAQDQLHNALNLNRHDLTYIMLGKIHLLEGDLDKAIEVYKKAVEFSPENTELLTTLGLLYLQLGIYQKAFEHLGNALTYDPTNYKAILAAGSMMQTHGDFDVALTKYRVVACAVPESPPLWNNIGMCFFGKKKYVAAISCLKRANYLAPFDWKILYNLGLVHLTMQQYASAFHFLSAAINFQPKMGELYMLLAVALTNLEDIENAKRAYAEAVHLDKCNPLVNLNYAVLLYNQGEKKNALAQYQEMEKKVSLLKDNSSLEFDSEMVEMAQKLGAALQVGEALVWTKPVKDPKSKHQTTSTSKPASFQQPLGSNQALGQAMSSAAAYRTLPSGAGGTSQFTKPPSLPLEPEPAVESAPTETSEQIREK [S508A]	with no effect
MAEERVATRTQFPVSTESQKPRQKKAPEFPILEKQNWLIHLHYIRKDYEACKAVIKEQLQETQGLCEYAIYVQALIFRLEGNIQESLELFQTCAVLSPQSADNLKQVARSLFLLGKHKAAIEVYNEAAKLNQKDWEISHNLGVCYIYLKQFNKAQDQLHNALNLNRHDLTYIMLGKIHLLEGDLDKAIEVYKKAVEFSPENTELLTTLGLLYLQLGIYQKAFEHLGNALTYDPTNYKAILAAGSMMQTHGDFDVALTKYRVVACAVPESPPLWNNIGMCFFGKKKYVAAISCLKRANYLAPFDWKILYNLGLVHLTMQQYASAFKFLSAAINFQPKMGELYMLLAVALTNLEDIENAKRAYAEAVHLDKCNPLVNLNYAVLLYNQGEKKNALAQYQEMEKKVSLLKDNSSLEFDSEMVEMAQKLGAALQVGEALVWTKPVKDPKSKHQTTSTSKPASFQQPLGSNQALGQAMSSAAAYRTLPSGAGGTSQFTKPPSLPLEPEPAVESSPTETSEQIREK [H325K]	with no effect
MAEERVATRTQFPVSTESQKPRQKKAPEFPILEKQNWLIHLHYIRKDYEACKAVIKEQLQETQGLCEYAIYVQALIFRLEGNIQESLELFQTCAVLSPQSADNLKQVARSLFLLGKHKAAIEVYNEAAKLNQKDWEISHNLGVCYIYLKQFNKAQDQLHNALNLNRHDLTYIMLGKIHLLEGDLDKAIEVYKKAVEFSPENTELLTTLGLLYLQLGIYQKAFEHLGNALTYDPTNYKAILAAGSMMQTHGDFDVALTKYRVVACAVPESPPLWNNIGMCFFGKKKYVAAISCLKRANYLAPFDWKILYNLGLVHLTMQQYASAFHFLSAAINFQPKMGELYMLLAVALTNLEDIENAKRAYAEAVHLDKCNPLVNLNYAVLLYNQGEKKNALAQYQEMEKKVSLLKDNSSLEFDSEMVEMAQKLGAALQVGEALVWTKPVKDPKSKHQKTSTSKPASFQQPLGSNQALGQAMSSAAAYRTLPSGAGGTSQFTKPPSLPLEPEPAVESSPTETSEQIREK [T449K]	with no effect
MAEERVATRTQFPVSTESQKPRQKKAPEFPILEKQNWLIHLHYIRKDYEACKAVIKEQLQETQGLCEYAIYVQALIFRLEGNIQESLELFQTCAVLSPQSADNLKQVARSLFLLGKHKAAIEVYNEAAKLNQKDWEISHNLGVCYIYLKQFNKAQDQLHNALNLNRHDLTYIMLGKIHLLEGDLDKAIEVYKKAVEFSPENTELLTTLGLLYLQLGIYQKAFEHLGNALTYDPTNYKAILAAGSMMQTHGDFDVALTKYRVVACAVPESPPLWNNIGMCFFGKKKYVAAISCLKRANYLAPFDWKILYNLGLVHLTMQQYASAFHFLSAAINFQPKMGELYMLLAVALTNLEDIENAKRAYAEAVHLDKCNPLVNLNYAVLLYNQGEKKNALAQYQEMEKKVSLLKDNSSLEFDSEMVEMAQKLGAALQVGEALVWTKPVKDPKSKHQTTSTKKPASFQQPLGSNQALGQAMSSAAAYRTLPSGAGGTSQFTKPPSLPLEPEPAVESSPTETSEQIREK [S453K]	with no effect
MAEERVATRTQFPVSTESQKPRQKKAPEFPILEKQNWLIHLHYIRKDYEACKAVIKEQLQETQGLCEYAIYVQALIFRLEGNIQESLELFQTCAVLSPQSADNLKQVARSLFLLGKHKAAIEVYNEAAKLNQKDWEISHNLGVCYIYLKQFNKAQDQLHNALNLNRHDLTYIMLGKIHLLEGDLDKAIEVYKKAVEFSPENTELLTTLGLLYLQLGIYQKAFEHLGNALTYDPTNYKAILAAGSMMQTHGDFDVALTKYRVVACAVPESPPLWENIGMCFFGKKKYVAAISCLKRANYLAPFDWKILYNLGLVHLTMQQYASAFHFLSAAINFQPKMGELYMLLAVALTNLEDIENAKRAYAEAVHLDKCNPLVNLNYAVLLYNQGEKKNALAQYQEMEKKVSLLKDNSSLEFDSEMVEMAQKLGAALQVGEALVWTKPVKDPKSKHQTTSTSKPASFQQPLGSNQALGQAMSSAAAYRTLPSGAGGTSQFTKPPSLPLEPEPAVESSPTETSEQIREK [N274E]	with no effect
MAEERVATRTQFPVSTESQKPRQKKAPEFPILEKQNWLIHLHYIRKDYEACKAVIKEQLQETQGLCEYAIYVQALIFRLEGNIQESLELFQTCAVLSPQSADNLKQVARSLFLLGKHKAAIEVYNEAAKLNQKDWEISHNLGVCYIYLKQFNKAQDQLHNALNLNRHDLTYIMLGKIHLLEGDLDKAIEVYKKAVEFSPENTELLTTLGLLYLQLGIYQKAFEHLGNALTYDPTNYKAILAAGSMMQTHGDFDVALTKYRVVACAVPESPPLWNNIGMCFFGKKKYVAAISCLKRANYLAPFDWKILYNLGLVHLTMQQYASAFHFLSAAINFQPKMGELYMLLAVALTNLEDIENAKRAYAEAVHLDKCNPLVNLNYAVLLYNQGEKKNALAQYQEMEKKVSLLKDNSSLEFDSEMVEMAQKLGAALQVGEALVWTKPVKDPKSKHQTTSTSKPASFQQPLGSNQALGQAMSSAAAYRTLPSGAGGTSQFTKPPSLPLEPKPAVESSPTETSEQIREK [E502K]	with no effect
MAEERVATRTQFPVSTESQKPRQKKAPEFPILEKQNWLIHLHYIRKDYEACKAVIKEQLQETQGLCEYAIYVQALIFRLEGNIQESLELFQTCAVLSPQSADNLKQVARSLFLLGKHKAAIEVYNEAAKLNQKDWEISHNLGVCYIYLKQFNKAQDQLHNALNLNRHDLTYIMLGKIHLLEGDLDKAIEVYKKAVEFSPENTELLTTLGLLYLQLGIYQKAFEHLGNALTYDPTNYKAILAAGSMMQTHGDFDVALTKYRVVACAVPESPPLWNNIGMCFFGKKKYVAAISCLKRANYLAPFDWKILYNLGLVHLTMQQYASAFHFLSAAINFQPKMGELYMLLAVALTNLEDIENAKRAYAEAVHLDKCNPLVNLIYAVLLYNQGEKKNALAQYQEMEKKVSLLKDNSSLEFDSEMVEMAQKLGAALQVGEALVWTKPVKDPKSKHQTTSTSKPASFQQPLGSNQALGQAMSSAAAYRTLPSGAGGTSQFTKPPSLPLEPEPAVESSPTETSEQIREK [N377I]	disrupting interaction strength
MAEERVATRTQFPVSTESQKPRQKKAPEFPILEKQNWLIHLHYIRKDYEACKAVIKEQLQETQGLCEYAIYVQALIFRLEGNIQESLELFQTCAVLSPQSADNLKQVARSLFLLGKHKAAIEVYNEAAKLNQKDWEISHNLGVCYIYLKQFNKAQDQLHNALNLNRHDLTYIMLGKIHLLEGDLDKAIEVYKKAVEFSPENTELLTTLGLLYLQLGIYQKAFEHLGNALTYDPTNYKAILAAGSMMQTHGDFDVALTKYRVVACAVPESPPLWNNIGMCFFGKKKYVAAISCLKRANYAAPFDWKILYNLGLVHLTMQQYASAFHFLSAAINFQPKMGELYMLLAVALTNLEDIENAKRAYAEAVHLDKCNPLVNLNYAVLLYNQGEKKNALAQYQEMEKKVSLLKDNSSLEFDSEMVEMAQKLGAALQVGEALVWTKPVKDPKSKHQTTSTSKPASFQQPLGSNQALGQAMSSAAAYRTLPSGAGGTSQFTKPPSLPLEPEPAVESSPTETSEQIREK [L299A]	with no effect
MAEERVATRTQFPVSTESQKPRQKKAPEFPILEKQNWLIHLHYIRKDYEACKAVIKEQLQETQGLCEYAIYVQALIFRLEGNIQESLELFQTCAVLSPQSADNLKQVARSLFLLGKHKAAIEVYNEAAKLNQKDWEISHNLGVCYIYLKQFNKAQDQLHNALNLNRHDLTYIMLGKIHLLEGDLDKAIEVYKKAVEFSPENTELLTTLGLLYLQLGIYQKAFEHLGNALTYDPTNYKAILAAGSMMQTHGDFDVALTKYRVVACAVPESPPLWNNIGMCFFGKKKYVEAISCLKRANYLAPFDWKILYNLGLVHLTMQQYASAFHFLSAAINFQPKMGELYMLLAVALTNLEDIENAKRAYAEAVHLDKCNPLVNLNYAVLLYNQGEKKNALAQYQEMEKKVSLLKDNSSLEFDSEMVEMAQKLGAALQVGEALVWTKPVKDPKSKHQTTSTSKPASFQQPLGSNQALGQAMSSAAAYRTLPSGAGGTSQFTKPPSLPLEPEPAVESSPTETSEQIREK [A288E]	with no effect
